Assay results from patent US20160130351A1 (NOVIMMUNE S A, published 2016).

Tests used:
[1] = biological target: soluble human IL-6Rc (shuIL-6Rc) recombinant fusion protein of IL-6R and IL-6 (human) (UniProt P08887); test: SPR (Biacore 2000), mAb captured on anti-human IgG Fc, analyte in solution, 25 C, 1:1 Langmuir
[2] = biological target: T1, MUTANT 2 (mouse, UniProt P22272); test: flow cytometry on PEAK cells displaying the mutated mouse IL-6R, goat anti-human IgG Alexa Fluor 647
T1 construct: also called mouse IL-6R with human residues in D3, mutant 2
T1 sequence (receptor chain, looked up): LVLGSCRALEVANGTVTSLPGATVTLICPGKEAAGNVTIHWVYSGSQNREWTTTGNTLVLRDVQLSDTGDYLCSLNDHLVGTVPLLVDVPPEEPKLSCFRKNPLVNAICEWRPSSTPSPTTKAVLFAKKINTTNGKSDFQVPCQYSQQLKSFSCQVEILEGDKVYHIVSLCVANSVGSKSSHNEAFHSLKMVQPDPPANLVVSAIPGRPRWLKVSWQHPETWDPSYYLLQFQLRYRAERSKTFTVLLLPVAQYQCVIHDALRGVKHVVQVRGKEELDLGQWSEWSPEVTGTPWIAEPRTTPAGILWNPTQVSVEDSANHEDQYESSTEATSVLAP
Text: (§1) An overlap extension PCR strategy was used to generate coding sequences specifying huIL-6R/mouseIL-6R chimeric proteins (FIG. 6A) and mouse IL-6R proteins containing human amino acid substitutions in D3 domains (FIG. 6B). Partially overlapping mutagenic oligonucleotide primers were used for PCR amplification of N- and C-terminal sequences on either side of huIL-6R/mouse IL-6R junctions or substituted regions, followed by gel isolation and annealing of the denatured PCR products. Full length PCR products were then digested by EcoRI and BglII and ligated into a pDISPLAY™ vector (Invitrogen). PEAK cells were grown in DMEM medium supplemented with 10% fetal calf serum and 4 mM L-glutamine. Cells were plated 12 to 24 h before transfection to have 40-50% confluency in 6 well plates. Transfections of pDISPLAY™ vectors (Invitrogen) were carried out by lipofection using TransIT® LT1 reagent (MirusBio) according manufacturer's specifications. Cells were grown for 48 h before harvesting and analysis by flow cytometry.
(§2) Cell surface staining was performed on PEAK cells displaying each variant of IL-6R and analyzed by flow cytometry (FIG. 6B-D). Cell surface expression of each chimeric IL-6R was assessed using an anti-human-CD126 PE or an anti-mouse CD126-PE antibody (BD Pharmingen).

[3] = biological target: T2, MUTANT 4 (mouse, UniProt P22272); test: as above
T2 construct: also called mouse IL-6R with human residues in D3, mutant 4
T2 sequence (receptor chain, looked up): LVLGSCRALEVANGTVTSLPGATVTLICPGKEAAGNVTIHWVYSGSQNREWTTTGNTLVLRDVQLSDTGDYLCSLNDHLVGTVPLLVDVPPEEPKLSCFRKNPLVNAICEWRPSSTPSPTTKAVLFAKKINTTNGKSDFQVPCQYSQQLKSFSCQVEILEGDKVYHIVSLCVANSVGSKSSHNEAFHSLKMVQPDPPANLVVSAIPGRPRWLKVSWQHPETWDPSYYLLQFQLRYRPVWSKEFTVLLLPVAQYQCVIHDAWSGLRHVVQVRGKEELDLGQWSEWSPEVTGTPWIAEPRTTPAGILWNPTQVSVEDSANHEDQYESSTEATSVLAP
Text: as §1, §2

[4] = biological target: T3, soluble cynomolgus monkey IL-6R (cynomolgus monkey, UniProt A0A2K5WN54 60-396); test: SPR (Biacore 2000), mAb captured on anti-human IgG Fc, analyte in solution, 25 C, 1:1 Langmuir
T3 construct: extracellular domain; also called scyIL-6R; soluble cynomolgus monkey IL-6 Receptor; not shown: C-terminal His- or Avi-Tag
T3 sequence: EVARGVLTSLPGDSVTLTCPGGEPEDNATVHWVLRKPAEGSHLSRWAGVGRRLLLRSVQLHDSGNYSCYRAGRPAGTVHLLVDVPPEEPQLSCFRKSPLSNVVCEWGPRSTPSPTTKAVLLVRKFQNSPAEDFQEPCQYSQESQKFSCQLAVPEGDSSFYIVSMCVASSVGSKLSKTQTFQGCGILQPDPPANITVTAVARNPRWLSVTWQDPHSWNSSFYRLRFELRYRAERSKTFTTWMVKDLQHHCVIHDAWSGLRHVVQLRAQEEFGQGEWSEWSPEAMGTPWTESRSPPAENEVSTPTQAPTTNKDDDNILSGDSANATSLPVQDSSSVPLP
Description: (§3) A CM5 Biacore chip was used and 1640 RU (response units) of an anti-human IgG Fc (Biacore AB, Uppsala, Sweden) was immobilized by EDC/NHS chemistry. […] The surface was regenerated after each cycle by injection of 3M magnesium chloride at 20 μL/min, for 30 s followed by lmin of stabilization time in HBS-EP buffer (Biacore AB, Uppsala, Sweden). Binding was measured by passing analytes carrier-free soluble human IL-6R (shuIL6-R; R&D), soluble human IL-6Rc (shuIL-6Rc) and soluble cynomolgus monkey IL-6R (scyIL-6R) in duplicates at the following concentrations: 100 nM, 50 nM, 25 nM, 12.5 nM, 6.25 nM and 0nM. All solutions were diluted in HBS-EP buffer. Injection was performed at 50 μl/min for 3 min followed by 12 min of dissociation time and the temperature was set at 25° C.

[5] = biological target: T4, carrier-free soluble human IL-6R (R&D) (human, UniProt P08887 20-365); test: as above
T4 construct: extracellular domain; also called shuIL-6R; shuIL6-R
T4 sequence (looked up): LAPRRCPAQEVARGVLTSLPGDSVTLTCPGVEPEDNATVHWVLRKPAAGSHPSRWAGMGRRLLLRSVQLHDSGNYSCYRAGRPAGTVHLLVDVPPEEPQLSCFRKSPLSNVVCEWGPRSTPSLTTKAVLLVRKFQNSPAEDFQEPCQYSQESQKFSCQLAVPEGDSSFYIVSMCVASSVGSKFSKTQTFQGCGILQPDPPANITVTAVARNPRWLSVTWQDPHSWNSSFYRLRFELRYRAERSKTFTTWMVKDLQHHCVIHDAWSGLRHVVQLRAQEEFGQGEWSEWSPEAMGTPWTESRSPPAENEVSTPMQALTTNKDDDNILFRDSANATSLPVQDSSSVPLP
Description: as §3

B1: NI-1201 wild type (NI-1201-WT) antibody (antibody, V domains shown)
VH: QVQLVQSGAEVKKPGSSVKVSCKASGGTFSSYAISWVRQAPGQGLEWMGGIIPLFDTTKYAQQFQGRVTITADESTSTAYMELSSLRSEDTAVFYCARDRDILTDYYPMGGMDVWGQGTTVTVSS
VL: AIQLTQSPSSLSASVGDRVTITCRASQGISSVLAWYQQKPGKAPKLLIYDASSLESGVPSRFSGSGSGTDFTLTISSLQPEDFATYYCQQSNSYPLTFGGGTKVEIKR
notes: Fully human monoclonal IgG (captured by anti-human IgG Fc in Biacore); also called 39B9 VL1
Kd [1]: 5.64 nM | koff [1]: 0.000243 s⁻¹ | kon [1]: 43100 M⁻¹ s⁻¹ | binding result [2]: binds | binding result [3]: no binding | Kd [4]: 2.04 nM | koff [4]: 0.000215 s⁻¹ | kon [4]: 106000 M⁻¹ s⁻¹ | Kd [5]: 0.0567 nM | koff [5]: 7.53e-05 s⁻¹ | kon [5]: 1.33e+06 M⁻¹ s⁻¹
